From patent US5733874A, “Stable dry powders” (Novartis Corp., priority 1994, dated 1998)

Experiment: RP-HPLC chromatogram of recombinant hirudin HV1 in water (FIG. 1)
Assay type: physicochemical
Conditions: 1 mg/ml hirudin in water
Procedure: RP-HPLC method: A LiChroCART 125-4 column is used (Merck LiChrospher 100 RP-18 5pm). Solvent A is 0.5% ammoniumacetate in acetonitrile/water (10:90), (v:v); solvent B is 0.5% ammoniumacetate in acetonitrile/water (25:75). The elution is performed at 45° C. using a flow rate of 0.5 ml/min. The binary elution is a linear gradient starting at time zero with 23% solvent B and reaching 46% solvent B after 24 minutes. After 2 min at 70% solvent B the column is equilibrated for 7 rain at 23% solvent B.
A typical chromatogram of recombinant hirudin HV1 (CGP 39393) in water using the RP-HPLC (1 mg/ml hirudin) method is shown in FIG. 1.
In FIG. 1, the relative area of the main peak is 95.15%. Storage of hirudin in water at room temperature results in an increase of by products with time. […] The changes which occur can be accelerated by using temperature stress experiments i.e. by storage at elevated temperatures.

## desulphatohirudin HV1 [CGP 39393]
  relative area of the main peak: 95.15%
